Data published in the supplement of paper PMC9732359.
± gives the uncertainty stated by the source.

Assay: protein stability index of a GFP-peptide fusion (yeast GPS) (PSI 1-4); higher = more stable; sorted into four equal gates, so the index is relative within each strain
Summary of the method: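 Sequencing reads from sorted gates were used to score each peptide. The library consisted of tiled 17-residue yeast protein peptides fused downstream of GFP on a Cherry-expressing plasmid, pooled and carried in yeast. Mid-log cultures in leucine-free medium were split into four equal gates by GFP/Cherry ratio, and each gate's plasmids were PCR-amplified and Illumina-sequenced. The protein stability index adds up, over all gates, the read frequency multiplied by the gate number.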

Sequence | protein stability index (doa10∆) | protein stability index (pdr5∆) | protein stability index (san1∆) | protein stability index (ubr1∆)
HHNDISNDSQSHFDYNT [YCG1] | 1.89 ± 0.18 | 2.16 ± 0.17 | 2.49 ± 0.14 | 2.39 ± 0.16
FYSTNSQYFKFKNDFNS [RPN9] | 2.1 ± 0.067 | 2.11 ± 0.054 | 2.1 ± 0.094 | 2.5 ± 0.053
ARKGLTPSQIGVLLRDA [RPS13] | 2.91 ± 0.26 | – | 2.09 ± 0.21 | 2.32 ± 0.041
RRSLKKQGRIKNATEEL [CSN12] | 3.2 ± 0.098 | 3.56 ± 0.083 | 3.37 ± 0.086 | 3.57 ± 0.066
KAFKNNSSKYYINEKES [SMC4] | 2.54 ± 0.12 | 2.42 ± 0.07 | 2.27 ± 0.083 | 1.72 ± 0.064
SIIKAKLPLLNESLIPL [YML103C/NUP188] | 1.68 ± 0.06 | 2.18 ± 0.067 | 1.84 ± 0.082 | 1.99 ± 0.05
SVINNYLREDQMIDTSI [NUT1] | 2.99 ± 0.074 | 3.32 ± 0.1 | 3.32 ± 0.083 | 2.84 ± 0.082
QNNTTKFHSELQYLDKH [RPN12] | 2.81 ± 0.1 | 3 ± 0.095 | 2.39 ± 0.26 | 3.17 ± 0.061
PDLPALEASYSKSYTPR [SMC4] | 2.28 ± 0.064 | 3.02 ± 0.088 | 2.75 ± 0.1 | 2.6 ± 0.071
GELRDYIEDFLLVIGGN [YJR042W/NUP85] | 2.23 ± 0.075 | 2.38 ± 0.065 | 2.65 ± 0.08 | 1.74 ± 0.037
LSSDEKRELLKRYRLKE [RPB5] | 3.08 ± 0.2 | 3.27 ± 0.17 | – | 3.52 ± 0.14
FVTQFRHLRRTGKVSEF [RET1] | 3.15 ± 0.24 | 2.5 ± 0.17 | 3.07 ± 0.093 | 2.41 ± 0.075
KKLSINSAARNIQHLLY [PRE7] | 2.68 ± 0.051 | 2.88 ± 0.062 | 2.81 ± 0.044 | 2.8 ± 0.056
NANTIETAKMIENMTKE [FAS2] | 2.72 ± 0.073 | 3.35 ± 0.078 | 2.97 ± 0.065 | 3.35 ± 0.095
VEKLGKKMEARGQSIWV [RPN9] | – | – | – | 1.51 ± 0.14
KLNTFNLQTFTHEQWSN [SRP72] | 3 ± 0.12 | 2.83 ± 0.078 | 2.36 ± 0.076 | 2.78 ± 0.062
SPNPTLQPVIPGGAASK [SNF5] | 3.23 ± 0.093 | 3.24 ± 0.082 | 3.19 ± 0.058 | 2.88 ± 0.059
MSGTTKRLNGKRKYLDI [SSN2] | – | – | – | 3.55 ± 0.12
YMEPFDLDLNEQVRKMY [NSL1] | 2.88 ± 0.1 | 2.36 ± 0.079 | 3.1 ± 0.068 | 2.46 ± 0.052
NNIIRIQQLISQFLKRV [SNF11] | 2.1 ± 0.039 | 2.14 ± 0.057 | 2.13 ± 0.065 | 2.3 ± 0.045

Sequence | protein stability index (doa10∆) | protein stability index (pdr5∆) | protein stability index (san1∆) | protein stability index (ubr1∆)
LKGKINNEMKSLQRSKS [SMC1] | – | 3.34 ± 0.19 | 3.11 ± 0.2 | 3.44 ± 0.099
DGYQLFHAEPSGTFYRY [PUP2] | 2.14 ± 0.11 | 1.6 ± 0.095 | 2.64 ± 0.062 | 1.5 ± 0.076
KLSKEERAARVAAKIAA [RPL5] | 2.54 ± 0.13 | 2.93 ± 0.079 | 2.49 ± 0.2 | 2.52 ± 0.078
PKPDKPSGRTRGRSVMK [ESC2] | 3.14 ± 0.17 | 3.05 ± 0.15 | 3.08 ± 0.098 | 3.7 ± 0.13
PGSVNSAAKYKDMKLLR [NUT1] | 2.89 ± 0.11 | 2.87 ± 0.12 | 2.73 ± 0.13 | 2.96 ± 0.085
KGSSLASAASEAIRDPK [SSN8] | 2.43 ± 0.053 | 2.62 ± 0.063 | 2.65 ± 0.065 | 2.99 ± 0.049
PSRQFDHYESNQLVAKL [SRB8] | 3.02 ± 0.061 | 2.85 ± 0.064 | 2.98 ± 0.064 | 3.17 ± 0.041
HSISEAENMLEELRGQQ [SMC4] | 3.27 ± 0.094 | 2.52 ± 0.18 | 3.35 ± 0.068 | 3.2 ± 0.079
ALPDAVTIIEPKEEEPI [RPS3] | 2.93 ± 0.059 | 2.99 ± 0.065 | 3.06 ± 0.061 | 3.04 ± 0.058
HTSSNSREIAQPSSSRY [SMB1] | 3.17 ± 0.11 | 2.97 ± 0.065 | 3.02 ± 0.054 | 3.22 ± 0.058
EPAEANEENDLDVDPAK [RPB2] | 3.3 ± 0.18 | 3.15 ± 0.19 | 3.17 ± 0.13 | 3.41 ± 0.17
RVSKDKKSGSLTFNSKN [FAS2] | 3.34 ± 0.084 | 3.26 ± 0.072 | 3.23 ± 0.092 | 3.18 ± 0.074
TNAKIPQFDSTQPKSSS [SSN3] | 3.03 ± 0.042 | 3.01 ± 0.044 | 3.09 ± 0.039 | 2.98 ± 0.032
DFTLIPRMASVFENYVK [CDC53] | 3.15 ± 0.091 | 2.88 ± 0.06 | 2.71 ± 0.061 | 3.13 ± 0.081
NMYTSTQKTELEIDNKD [SIR4] | 3.04 ± 0.069 | 3.01 ± 0.081 | 3.04 ± 0.068 | 3.06 ± 0.065
VPQGKIVALTNAKDKER [SMC3] | 2.77 ± 0.1 | 2.84 ± 0.14 | 2.83 ± 0.15 | 3.02 ± 0.092
MTEDIEQKKTATEVTPQ [RPC19] | 2.8 ± 0.12 | 3.2 ± 0.093 | 3.1 ± 0.098 | 3.28 ± 0.11
ENIPVALCKNRKCQFRT [POP1] | 2.46 ± 0.048 | 2.68 ± 0.059 | 2.32 ± 0.079 | 1.96 ± 0.035
LFGGRHYLFNTFTFTAH [SWP82] | 2.03 ± 0.042 | 2.1 ± 0.035 | 1.69 ± 0.061 | 1.82 ± 0.024
AFGSSATDISGELRDYI [YJR042W/NUP85] | 3.26 ± 0.14 | 3.54 ± 0.13 | 2.81 ± 0.11 | 3.28 ± 0.083
